Assay [1] deals with T1, mouse somatostatin receptor SSTR2 (mouse).
T1 chain: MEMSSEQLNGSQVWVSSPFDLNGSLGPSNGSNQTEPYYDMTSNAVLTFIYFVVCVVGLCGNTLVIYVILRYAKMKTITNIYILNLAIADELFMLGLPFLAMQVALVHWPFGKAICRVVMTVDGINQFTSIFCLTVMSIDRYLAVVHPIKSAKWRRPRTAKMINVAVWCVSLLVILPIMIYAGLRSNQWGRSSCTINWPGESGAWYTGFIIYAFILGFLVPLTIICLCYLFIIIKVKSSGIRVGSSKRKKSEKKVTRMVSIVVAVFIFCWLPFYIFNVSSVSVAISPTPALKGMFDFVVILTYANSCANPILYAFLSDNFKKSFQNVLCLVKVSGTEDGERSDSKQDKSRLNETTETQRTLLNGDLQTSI
Description: competition of [125I]iodo-Tyr11-somatostatin-14 binding to CHO cells transfected with mouse SSTR2.
Description: At 1.5 PstI/XmnI fragment of the human SSTR1 gene and a 1.2 kb XbaI fragment of the mouse SSTR2 gene were inserted into the mammalian expression vectors pCMV6b and 6c, respectively (a gift of Dr. B. Chapman, Chiron Corp., Emeryville, Calif.). The resulting constructs were co-transfected with pSV2neo into the dihydrofolate reductase-deficient Chinese hamster ovary (CHO) cell line, DG44, using Lipofectin Reagent (GIBCO BRL, Gaithersburg, Md.). Stable transfectants were selected and maintained in α-MEM (GIBCO BRL) containing 400 vg/ml G418. Each cell line was grown to confluency in 6-well, 35-mm diameter plates at 37° C. The cells were washed with buffer containing 10 mM HEPES, 5 mM KH_2PO_4, 5 mM MgCl_2, 150 mM NaCl, and 1% (wt./vol.) bovine serum albumin (all at pH 7.4), and were stabilized in the same buffer for 30 min at 22° C. […] Incubated cells were washed twice with 2-ml portions of ice-cold buffer and were dissolved in 1 ml of 8M urea in 3M acetic acid. The suspended cells were transferred to a tube, the well was washed with 1 ml of the same solution, and the combined extracts were measured for radioactivity by use of a gamma-counter.

Assay [2] deals with human somatostatin receptor SSTR1 (human). Description: competition of [125I]iodo-Tyr11-somatostatin-14 binding to CHO cells stably expressing human SSTR1.
Description: The resulting constructs were co-transfected with pSV2neo into the dihydrofolate reductase-deficient Chinese hamster ovary (CHO) cell line, DG44, using Lipofectin Reagent (GIBCO BRL, Gaithersburg, Md.). Stable transfectants were selected and maintained in α-MEM (GIBCO BRL) containing 400 vg/ml G418. Each cell line was grown to confluency in 6-well, 35-mm diameter plates at 37° C. The cells were washed with buffer containing 10 mM HEPES, 5 mM KH_2PO_4, 5 mM MgCl_2, 150 mM NaCl, and 1% (wt./vol.) bovine serum albumin (all at pH 7.4), and were stabilized in the same buffer for 30 min at 22° C. […] Incubated cells were washed twice with 2-ml portions of ice-cold buffer and were dissolved in 1 ml of 8M urea in 3M acetic acid. The suspended cells were transferred to a tube, the well was washed with 1 ml of the same solution, and the combined extracts were measured for radioactivity by use of a gamma-counter.
The pharmacological characteristics of SSTR1 were examined in CHO cells that were stably expressing this receptor.

No end group written: not given here.

Drawing on patent publication US5723299, “Somatostatin receptors” (Arch Development Corporation, dated 1998), this text covers IC50 for two molecules.

Chain of human somatostatin receptor SSTR1 (human) (chain, as listed by the source): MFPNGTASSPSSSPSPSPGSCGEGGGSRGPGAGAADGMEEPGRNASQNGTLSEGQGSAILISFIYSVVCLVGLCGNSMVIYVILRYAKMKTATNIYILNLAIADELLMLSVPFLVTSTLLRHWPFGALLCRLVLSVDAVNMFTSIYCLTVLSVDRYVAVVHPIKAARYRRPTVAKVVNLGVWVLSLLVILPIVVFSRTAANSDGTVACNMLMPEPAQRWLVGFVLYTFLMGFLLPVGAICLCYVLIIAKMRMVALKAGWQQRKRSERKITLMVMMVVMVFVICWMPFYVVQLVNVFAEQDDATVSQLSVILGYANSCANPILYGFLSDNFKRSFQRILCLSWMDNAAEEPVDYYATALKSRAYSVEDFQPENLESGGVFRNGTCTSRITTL

In the case of AGCKNFFWKTFTSC (not fully specified (bridges); cysteine pairing not given here) [somatostatin-14], the IC50 (commonly the concentration needed to halve the response being measured) in assay [1] stood at 1.6 nM.
Molecule SANSNPAMAPRERKAGCKNFFWKTFTSC [somatostatin-28] showed an IC50 in assay [2] of 4.7 nM.
